Target: human cMET (human, UniProt P08581 25-932)
Experiment: phage TRF on cMET

Sequence of human cMET (P08581 25-932 limits assumed): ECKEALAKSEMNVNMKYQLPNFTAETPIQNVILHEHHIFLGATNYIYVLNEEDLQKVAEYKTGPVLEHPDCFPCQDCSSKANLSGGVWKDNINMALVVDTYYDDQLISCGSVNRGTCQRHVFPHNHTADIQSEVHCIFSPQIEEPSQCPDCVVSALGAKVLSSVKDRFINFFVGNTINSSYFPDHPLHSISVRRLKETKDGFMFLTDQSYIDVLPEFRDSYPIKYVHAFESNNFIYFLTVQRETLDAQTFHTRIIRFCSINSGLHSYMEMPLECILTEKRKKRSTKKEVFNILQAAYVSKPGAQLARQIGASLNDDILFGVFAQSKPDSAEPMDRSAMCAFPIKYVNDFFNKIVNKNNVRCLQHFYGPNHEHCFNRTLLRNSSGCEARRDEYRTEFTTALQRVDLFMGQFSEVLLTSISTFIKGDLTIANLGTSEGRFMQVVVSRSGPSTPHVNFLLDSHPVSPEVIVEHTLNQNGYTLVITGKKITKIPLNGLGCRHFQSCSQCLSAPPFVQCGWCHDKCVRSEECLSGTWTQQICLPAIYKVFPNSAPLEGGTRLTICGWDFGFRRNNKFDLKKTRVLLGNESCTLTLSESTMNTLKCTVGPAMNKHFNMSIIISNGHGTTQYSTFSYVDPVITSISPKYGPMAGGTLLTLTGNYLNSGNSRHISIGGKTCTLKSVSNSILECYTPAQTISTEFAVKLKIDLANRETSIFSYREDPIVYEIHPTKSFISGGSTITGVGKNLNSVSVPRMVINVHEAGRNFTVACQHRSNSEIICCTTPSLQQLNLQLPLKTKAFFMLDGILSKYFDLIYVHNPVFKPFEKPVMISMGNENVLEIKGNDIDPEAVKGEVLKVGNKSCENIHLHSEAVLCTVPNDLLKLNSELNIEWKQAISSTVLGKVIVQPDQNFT

B1: KB_A12_cMET_H08 (scFv, V domains shown)
VH: EVQLVESGGGLVRPGGSLRLSCAASGFTFSSYAMSWVRQAPGKGLEWVSAISGSGGSTYYADSVKGRFTISRDNTKNSLYLQMTSLRADDTAFYYCVKDFGPGYGTGWFDYWGPGTLVTVSS
VL: AVNWYQQLPGKAPKLLIYAAGRCQTGRSGTGRCKQDSDCLAGCVCGPNGFCGANSGVSDRFSAAKSGTSASLAINGLRSEDEADYYCAAWDDSLNGYVFGTGTKLTVLG
  TRF signal: 6730

Reference: patent US20230331827A1 (MAXION THERAPEUTICS, published 2023)
